Experimental findings from patent US20230118024A1 (Chugai, published 2023) are described below.

Where two headings read alike, the source gives them in different places.

In assay [1] the target is T1, HLA-DQ2.5/33mer gliadin peptide complex on Ba/F3 cells (human; wheat).
T1 construct: also called Ba/F3-HLA-DQ2.5/33mer gliadin peptide; HLA-DQ2.5/gliadin peptide complex
Briefly: FACS. On the technique in general: A flow cytometer gives signals particle by particle.

Assay [2] addresses T2, HLA-DQ2.5/omega 2 gliadin peptide complex on Ba/F3 cells (human; wheat).
T2 construct: also called Ba/F3-HLA-DQ2.5/omega 2 gliadin peptide
Description: FACS.

Assay [3] has as its target T3, HLA-DQ2.5/CLIP peptide complex on Ba/F3 cells (human).
T3 construct: also called Ba/F3-HLA-DQ2.5/CLIP peptide
Briefly: FACS.

Assay [4] has as its target T4, HLA-DQ2.5/alpha 1b gliadin peptide complex on Ba/F3 cells (human; wheat).
T4 construct: also called Ba/F3-HLA-DQ2.5/alpha 1b gliadin peptide
Briefly: FACS.

In assay [5] the target is T5, HLA-DQ2.5/alpha 1 gliadin peptide complex on Ba/F3 cells (human; wheat).
T5 construct: also called Ba/F3-HLA-DQ2.5/alpha 1 gliadin peptide
Briefly: FACS.

The target in assay [6] is T6, HLA-DQ2.5 on HLA-DQ2.5 positive PBMC-B cells (human, UniProt P01909 24-254; P01920 33-261).
T6 construct: also called DQ2.5 + PBMC; HLA-DQ2.5+PBMC B cell
T6 MHC II alpha: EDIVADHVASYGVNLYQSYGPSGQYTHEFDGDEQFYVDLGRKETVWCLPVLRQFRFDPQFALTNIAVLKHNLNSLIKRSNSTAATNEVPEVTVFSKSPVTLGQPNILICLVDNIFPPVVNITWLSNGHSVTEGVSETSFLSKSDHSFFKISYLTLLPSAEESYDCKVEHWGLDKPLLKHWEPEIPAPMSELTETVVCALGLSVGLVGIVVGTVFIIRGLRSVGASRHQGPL
T6 MHC II beta: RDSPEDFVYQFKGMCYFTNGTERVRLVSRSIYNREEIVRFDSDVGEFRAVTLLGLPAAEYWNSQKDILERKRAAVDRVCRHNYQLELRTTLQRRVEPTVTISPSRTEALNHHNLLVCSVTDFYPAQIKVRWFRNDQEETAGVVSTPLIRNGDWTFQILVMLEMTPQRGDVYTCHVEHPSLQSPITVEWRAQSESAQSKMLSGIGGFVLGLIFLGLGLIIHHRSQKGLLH
Description: FACS.

In assay [7] the target is T7, HLA-DQ2.5/secalin 2 peptide complex on Ba/F3 cells (human; rye).
T7 construct: also called Ba/F3-HLA-DQ2.5/secalin 2 peptide
Description: FACS.

For assay [8], the target named is T8, HLA-DQ2.5/secalin 1 peptide complex on Ba/F3 cells (human; rye).
T8 construct: also called Ba/F3-HLA-DQ2.5/secalin 1 peptide
Briefly: FACS.

In assay [9] the target is T9, HLA-DQ2.5/alpha 2 gliadin peptide complex on Ba/F3 cells (human; wheat).
T9 construct: also called Ba/F3-HLA-DQ2.5/alpha 2 gliadin peptide
Description: FACS.

Assay [10] has as its target T10, HLA-DQ2.5/omega 1 gliadin peptide complex on Ba/F3 cells (human; wheat).
T10 construct: also called Ba/F3-HLA-DQ2.5/omega 1 gliadin peptide
Briefly: FACS.

For assay [11], the target named is T11, HLA-DQ2.5 on Ba/F3 cells (not in the form of a complex with a linked peptide) (human, UniProt P01909 24-254; P01920 33-261).
T11 construct: also called Ba/F3-HLA-DQ2.5; No peptide
T11 MHC II alpha: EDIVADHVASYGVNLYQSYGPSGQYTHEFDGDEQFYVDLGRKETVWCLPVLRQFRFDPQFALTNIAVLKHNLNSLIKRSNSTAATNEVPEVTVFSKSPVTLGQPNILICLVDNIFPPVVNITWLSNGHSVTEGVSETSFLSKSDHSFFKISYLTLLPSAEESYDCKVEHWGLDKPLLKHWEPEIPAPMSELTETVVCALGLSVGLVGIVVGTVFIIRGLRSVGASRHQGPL
T11 MHC II beta: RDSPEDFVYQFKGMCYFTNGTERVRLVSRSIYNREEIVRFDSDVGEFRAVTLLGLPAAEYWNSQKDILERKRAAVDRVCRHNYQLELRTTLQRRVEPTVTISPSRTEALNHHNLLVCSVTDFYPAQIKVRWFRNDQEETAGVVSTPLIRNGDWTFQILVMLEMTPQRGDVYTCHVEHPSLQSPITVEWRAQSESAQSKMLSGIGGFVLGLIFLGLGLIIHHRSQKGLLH
Description: FACS.

Assay [12] concerns the target T1, HLA-DQ2.5/33mer gliadin peptide complex …. Briefly: cell-based or functional assay.
The target in assay [13] is T12, recombinant HLA-DQ2.5/33mer gliadin peptide complex (human; wheat).
T12 construct: also called soluble HLA-DQ2.5/33mer gliadin peptide complex
T12 alpha: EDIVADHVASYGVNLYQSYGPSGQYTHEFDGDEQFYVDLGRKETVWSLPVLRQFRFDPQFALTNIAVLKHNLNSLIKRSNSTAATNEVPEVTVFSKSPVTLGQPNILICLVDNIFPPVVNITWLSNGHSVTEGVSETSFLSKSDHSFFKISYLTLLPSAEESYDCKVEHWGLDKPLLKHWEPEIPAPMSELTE
T12 beta: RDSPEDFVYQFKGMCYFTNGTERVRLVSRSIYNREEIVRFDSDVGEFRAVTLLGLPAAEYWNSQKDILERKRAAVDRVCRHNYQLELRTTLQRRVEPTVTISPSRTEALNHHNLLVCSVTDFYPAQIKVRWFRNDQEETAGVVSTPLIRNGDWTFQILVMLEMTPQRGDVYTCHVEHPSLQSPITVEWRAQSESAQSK
T12 peptide: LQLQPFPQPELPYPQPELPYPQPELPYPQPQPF
Briefly: SPR, Ab captured, 37 C, pH 7.4.

In assay [14] the target is T12, recombinant HLA-DQ2.5/33mer gliadin …. Description: AlphaLISA neutralizing assay: biotinylated HLA-DQ2.5/33mer gliadin peptide complex on acceptor beads, biotinylated D2 TCR on donor beads; blocked ligand: D2 TCR (Example 4.4).
Assay [15] has the same target. Briefly: AlphaLISA neutralizing assay: biotinylated HLA-DQ2.5/33mer gliadin peptide complex on acceptor beads, biotinylated D2 TCR on donor beads; blocked ligand: D2 TCR (Example 12). A general note: In Alpha technology, singlet oxygen from a donor bead excites a nearby acceptor bead.
Assay [16] shares this target. Description: SPR, Ab captured, 37 C, pH 7.4. On the technique in general: SPR reads the build-up and loss of mass on a sensor chip optically.

B1: DQN0225dd (antibody, human IgG1, kappa, V domains shown)
VH: QSLEESGGGLVKPGGTLTLTCTASGFSFSSAYYMCWVRQAPGKGLEWIACIYVGSGSTYYASWAQGRCTISKASSTTVTLQMTSLTAADTATYFCARDPLIYYYYGELNLWGPGTLVTVSS
VL: AVVLTQTASPVSAPVGGTVTIKCQASEDISSNLAWYQQKPGQRPKVLIYSASTLASGVSSQFKGSGSGTQFTLTISDLECADAATYYCQSYYDISSVTFGGGTKVEIKR
notes: also called DQN0225Hd; DQN0225Ld
Broadly, the Kd is the free concentration of one partner at which half of the binding sites on the other are occupied at equilibrium, for simple one-to-one binding. Turning to B1, the “FIG. 30 FACS value (IC17=0, DQN0139bb=100)” value (“FIG. 30 FACS value” for short) in [1] is 108; in assay [2], 62; in assay [3], 1.2; in [4], 81.3; in assay [5], 93.5; in [6], -0.1. Moreover, the “FIG. 30 FACS value” value in assay [7] was 68.7; in assay [8], 77.2; in assay [9], 85.1; in assay [10], 75.6; in assay [11] it was -0.1. Moreover, the “IC50 (read off the curve)” value in assay [12] is roughly 0.3 µg/mL. Moreover, in [13], the Kd came to 7.88 nM.

B2: DQN0324hh (antibody, human IgG1, kappa, V domains shown)
VH: QSLEESGGDLVKPGASLALTCTASGFSLINNYYMCWVRQAPGKGLEWIACIYAGLGGWTYYASWAKGRFTISKTSSTTVTLQMSSLTVADAATYFCARAATTYYHFNLWGPGTLVTVSS
VL: AVVLTQTESPVSAAVGDTVTIKCQASQSIGNALAWYQQKPGQPPKLLIYDASTLASGVPSRFKGSGSGTQFTLTISDLECADAATYYCQSYDYGSSADTYTFGGGTKVEIKR
notes: also called DQN0324Lh
In the case of B2, the “FIG. 30 FACS value” value in assay [1] amounted to 59.2; in assay [2] it was 79.4; in [3] it was 0.3; in [4], 8.2; in [5] it was 26.9; in assay [6], 0.3. For the same molecule, the “FIG. 30 FACS value” value in assay [7] worked out at 14.5; in assay [8], 16.3; in [9] it was 34.9; in [10], 7.3; in assay [11] it was 0. Besides, the “IC50 (read off the curve)” value in [12] was roughly 0.2 µg/mL. Moreover, in [13], the Kd was found to be 6.32 nM.

B3: DQN0334bb (antibody, human IgG1, kappa, V domains shown)
VH: QQQLEESGGDLVQPEGSLTLTCKASGFDFSFNAMCWVRQAPGRGPEWIACIYNGNGSTYYASWAKGRFTISKTSSTSVTLQMTSLTAADTATYFCARGGYGLGYAGYGDVNYFNLWGPGTLVTVSS
VL: AVVLTQTASPVSAPVGGTVTIKCQASEDIYFLLAWYRQKPGQPPKLLIYGASTLASGVPSRFKGSGSGTEYTLTISDLECADAATYYCQSYWYGDSGPNTFGGGTKVEIKR
notes: also called DQN0334Hb; DQN0334Lb
B3: the “FIG. 30 FACS value” value in [1] came to 65.9; in [2], 36.6; in [3], 1.2; in assay [4] it was 16.5; in [5] it was 46.4; in assay [6], 0.8. In addition, the “FIG. 30 FACS value” value was found to be 3.3 in assay [7]; 5 in assay [8]; 45.3 in [9]; 2.8 in assay [10]; 0.4 in assay [11]. Further, the Kd in assay [13] was found to be 5.72 nM; in [16] it was 6.29 nM. Further, the “IC50 (read off the curve)” value in assay [14] is roughly 1 µg/mL; in assay [15], roughly 0.7 µg/mL.

B4: DQN0271hh (antibody, human IgG1, kappa, V domains shown)
VH: QSLEESGGGLVKPGASLTLTCKASGFSFSSGYYMCWVRQAPGKGLEWIACIYAGSPDLTYYATWAKGRLTISTTSSTTVTLQLTSLTAADTATYFCARDPGNWGGYDDVRLWGPGTLVTVSS
VL: AQVLTQTPSPVSAAVGGTVTISCQSSQSIYSNYLSWFQQKTGQPPKLLIYRASTLASGVPSRFKGSGSGTEFTLTISGVECDDAATYYCQGYYSGAIWTFGGGTKVEIKR
notes: also called DQN0271Lh
B4: the “FIG. 30 FACS value” value was determined as 106 in assay [1]; 68.9 in assay [2]; 3.8 in assay [3]; 80.5 in assay [4]; 91.2 in assay [5]; 0 in [6]. The “FIG. 30 FACS value” value is 70.2 in [7]; 65.3 in assay [8]; 83 in assay [9]; 79.3 in [10]; 0 in assay [11]. Besides, in [12], the “IC50 (read off the curve)” value is roughly 0.3 µg/mL. Further, in assay [13], the Kd worked out at 6.07 nM.

B5: DQN0282ff (antibody, human IgG1, kappa, V domains shown)
VH: QSVEESGGRLVTPGTPLTLSCKASGFDFSIYYMSWVRQAPGKGLEWIGVINSGGGVTWYASWVKGRFTISKTSTTVDLKITSPTTEDTATYFCARLGDSNHYDLWGPGTLVTVSS
VL: AYDMTQTPSSVSAAVGGTVTIKCQASETISSYLAWYQQKPGQRPQLLIYDASNLASGVPSRFKGSGSGTEFTLTISDLECADAATYYCQTHYYITSTTFGGGTKVEIKR
notes: also called DQN0282Hf; DQN0282Lf
Turning to B5, the “FIG. 30 FACS value” value came to 73.5 in [1]; 42.6 in assay [2]; 28.7 in [3]; 20.9 in assay [4]; 32.6 in assay [5]; 4.3 in assay [6]. Also, the “FIG. 30 FACS value” value in [7] came out at 48; in assay [8] it was 49.6; in [9], 34.5; in assay [10], 7; in [11], 3. Moreover, the dissociation constant Kd in [13] amounted to 11.4 nM; in assay [16] it was 13.7 nM. Moreover, the “IC50 (read off the curve)” value in assay [14] is roughly 0.3 µg/mL.
